Data as given in patent US20220169693A1, “Screening Assays, Modulators and Modulation of Intracellular Signalling Mediated by Immunoglobulin Superfamily Cell Adhesion Molecules” (Monash University, priority 2018, published 2022).

How the values were obtained:
[1] = system: human ALCAM (ALCAM1-583, cytosolic tail ALCAM551-583); assay: Ang II-induced p65/PCNA expression in AT1R-CHO cells transfected with human ALCAM (full length or cytosolic tail); assay type: cell-based; conditions: Ang II 1 μM, co-transfection, text: cytosolic tail ALCAM551-583, legend: full length ALCAM1-583
Experimental: (§1) Adult retinal pigment epithelial (ARPE) cells were cultured in Dulbecco's modified Eagle's medium (DMEM)/F12 endothelial cell growth supplement (ECGS) supplemented media. Chinese Hamster Ovary (CHO) cells were cultured using F12 media (10% FCS with 2 mM glutamine). Human microvascular endothelial cells (HMEC) were cultured in MCDB 131 medium (10% FCS with 10 mM glutamine, EGF and hydrocortisone).
(§2) 100 ng of AT1R-Rluc8 construct was transfected into CHO cells using Lipofectamine 2000 (Thermo). Stable transfectants were selected using G418. AT1R-CHO were then transiently transfected with the IgSF CAM and/or RAGE constructs using Lipofectamine 2000 (Invitrogen) and incubated for 16h.
(§3) Oligonucleotides were designed and ordered to generate the ALCAM, BCAM and MCAM intracellular (cytosolic) domains. These included a 5′ NheI site, Kozak sequence and initiating Methionine and then DNA sequences corresponding to ALCAM residues 552-583, BCAM residues 569-628 and MCAM residues 584-637 respectively (Note that as residue 551 of ALCAM is Methionine, the cytosolic tail of ALCAM effectively corresponded to residues 551-583). The pCIneo parental vector was digested with NheI and NotI restriction enzymes, and the DNA of the fragments of the ALCAM, BCAM and MCAM tails/cytosolic domains were ligated into the digested plasmid. After transformation and recovery, colonies were screened and individual clones sequenced. The sequence of the insert was confirmed by DNA sequencing (Micromon, Monash University). A full-length clone of Mouse ALCAM (BC027280) was purchased from Origene. The untagged clone was supplied in the vector pCMV6. Overlapping DNA sequences were ordered to generate the ALCAM559-580 fragment oligonucleotide. These included a 5′ NheI site, Kozak sequence and initiating Methionine and then DNA sequences corresponding to ALCAM residues 559-580. The pCIneo parental vector was digested with NheI and NotI restriction enzymes, and the ALCAM559-580 construct DNA was ligated into the digested plasmid. After transformation and recovery, colonies were screened and individual clones sequenced.
(§4) After 2 hours of exposure to Ang II (1 μM) cells were placed in Trizol, mRNA extracted and cDNA synthesized. Changes in the gene expression of the NFκB subunit, p65 (RelA) or NFκB-activated target genes (e.g ICAM-1) were estimated by quantitative real-time RT-PCR, performed using the TaqMan system based on real-time detection of accumulated fluorescence (ABI Prism 7700, Perkin-Elmer Inc, PE Biosystems, Foster City, Calif., USA). Gene expression was normalized to 18S mRNA and reported as fold change compared to the level of expression in untreated control mice/cells, which were given an arbitrary value of 1.

[2] = target: T1, human ALCAM (ALCAM1-583, cytosolic tail ALCAM551-583) (Homo sapiens, UniProt Q13740); assay: as above; assay type: cell-based; conditions: Ang II 1 μM, co-transfection (FIG. 3G, 1E)
T1 construct: expressed in transfected cells; host or cells: AT1R-CHO (CHO stably transfected with human AT1R-Rluc8), transient transfection
T1 sequence (Q13740 551-583): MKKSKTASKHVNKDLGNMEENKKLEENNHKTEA
Experimental: as §1, §2, §3, §4

[3] = target: T2, full length RAGE1-404 transactivated by C5a receptor 1 (Homo sapiens, UniProt Q15109); assay: C5a-induced ICAM-1 expression in ARPE cells transfected with C5aR1 and full length RAGE; assay type: cell-based; conditions: C5a 1 μM, co-expression (FIG. 6B)
T2 construct: expressed in transfected cells; host or cells: human ARPE (adult retinal pigment epithelial) cells

AT1R-CHO cells = assay: p65 expression in AT1R-CHO cells expressing the truncated construct alone; assay type: cell-based, Chinese Hamster; conditions: AT1R-CHO cells, Ang II 1 μM (FIG. 3A, 5A, 5B)
Experimental: as §1, §2, §3, §4

[4] = target: T3, cytosolic tail of BCAM, BCAM569-628 (Homo sapiens, UniProt P50895); assay: Ang II-induced p65 expression in AT1R-CHO cells transfected with cytosolic tail of BCAM; assay type: cell-based; design: corresponds to residues 569-628 of BCAM plus an initiating Methionine; initiating Methionine (N); expressed in transfected cells; host or cells: AT1R-CHO (CHO stably transfected with human AT1R-Rluc8); insert in pCIneo; conditions: Ang II 1 μM, co-transfection (FIG. 3H)
T3 sequence (P50895 with tags, fused parts or gaps): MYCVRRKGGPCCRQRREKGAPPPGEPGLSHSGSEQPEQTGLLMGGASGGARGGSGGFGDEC
Experimental: as §1, §2
Oligonucleotides were designed and ordered to generate the ALCAM, BCAM and MCAM intracellular (cytosolic) domains. […]
as §4, with “Gene expression was normalized to 18S mRNA and reported as fold change compared to the level of expression in untreated control mice/cells, which were given an arbitrary value of 1.” left out

[5] = target: T4, cytosolic tail of human EpCAM, EpCAM289-314 (Homo sapiens, UniProt P16422); assay: Ang II-induced p65 expression in AT1R-CHO cells transfected with cytosolic tail of EpCAM; assay type: cell-based; conditions: Ang II 1 μM, co-transfection (FIG. 3J)
T4 construct: corresponds to residues 289-314 of EpCAM plus an initiating Methionine; initiating Methionine (N); expressed in transfected cells; host or cells: AT1R-CHO (CHO stably transfected with human AT1R-Rluc8), transient transfection
T4 sequence (P16422 with tags, fused parts or gaps limits assumed): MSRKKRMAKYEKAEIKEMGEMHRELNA
Experimental: as §1, §2, §4

T2 sequence (Q15109 23-404): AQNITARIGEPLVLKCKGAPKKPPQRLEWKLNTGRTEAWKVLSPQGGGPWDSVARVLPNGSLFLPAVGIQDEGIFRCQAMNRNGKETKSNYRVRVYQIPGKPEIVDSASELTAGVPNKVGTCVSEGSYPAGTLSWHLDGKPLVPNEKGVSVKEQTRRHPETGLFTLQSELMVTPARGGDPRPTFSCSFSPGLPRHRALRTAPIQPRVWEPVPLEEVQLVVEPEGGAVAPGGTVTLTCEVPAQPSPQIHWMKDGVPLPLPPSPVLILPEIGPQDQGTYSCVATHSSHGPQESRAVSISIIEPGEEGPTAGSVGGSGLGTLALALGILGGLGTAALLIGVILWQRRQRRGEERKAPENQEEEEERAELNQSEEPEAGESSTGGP

Sequence: MKHVNKDLGNMEENKKLEENNHK [ALCAM559-580]
- induction of p65-NFκB expression by Ang II via transactivation of human ALCAM (FIG. 3E) [1]: prevents induction
- p65-NFκB dependent induction of PCNA expression by Ang II via human ALCAM (FIG. 3F) [1]: prevents induction
- induction of p65-NFκB expression by Ang II via transactivation of the cytosolic tail of human ALCAM, ALCAM551-583 [2]: prevents induction
- RAGE-dependent induction of ICAM-1 expression following transactivation of RAGE by C5a receptor 1 [3]: inhibits
- induction of p65 expression by Ang II when the construct alone is expressed (AT1R-CHO cells): failed to increase the expression of p65
- induction of p65-NFκB expression by Ang II via transactivation of BCAM569-628 [4]: prevents induction
- induction of p65-NFκB expression by Ang II via transactivation of EpCAM289-314 [5]: prevents induction
